Where no end group is shown, it is not given here.

In this assay the target is T1, 6His-14-3-3ω recombinant protein (Arabidopsis thaliana, UniProt Q01525 1-259).
T1 construct: 14-3-3ω (GF14/omega) of Arabidopsis thaliana; also called At14-3-3ω; GF14/omega; source: E. coli, purified (Ni-NTA)
T1 sequence (looked up): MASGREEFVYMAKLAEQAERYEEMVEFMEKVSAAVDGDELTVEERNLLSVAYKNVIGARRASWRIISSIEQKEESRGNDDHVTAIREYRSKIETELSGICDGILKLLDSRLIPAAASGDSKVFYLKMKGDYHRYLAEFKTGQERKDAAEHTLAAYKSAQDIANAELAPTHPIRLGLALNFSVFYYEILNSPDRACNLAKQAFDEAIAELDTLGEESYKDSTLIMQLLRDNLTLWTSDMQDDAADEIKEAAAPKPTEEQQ
Kind of assay: quartz crystal microbalance; GST fusion peptide coated on the sensor to saturation, 6His-14-3-3ω injected into PBS; AFFINIX QN μ, Kd by AQUA software. To be noted: both partners purified.

B1: Phosphorylated GST-GLR3.7 P0 recombinant fusion peptide (peptide)
chain: RYRRMERTSSMPRA
modifications: also: phosphorylated, site not given here, fused to GST
notes: C-terminal fragment of AtGLR3.7 holding Thr-858, Ser-859 and Ser-860; also called G-P0-phosphorylated fusion peptide; phosphorylated G-GLR3.7 P0; not shown: RFP (from the NRV vector)
Regarding B1, the Kd worked out at 2.31 nM.

B2: GST-GLR3.7 P0 recombinant fusion peptide (nonphosphorylated) (peptide)
chain: RYRRMERTSSMPRA
modifications: also: GST fusion
notes: C-terminal fragment of AtGLR3.7 holding Thr-858, Ser-859 and Ser-860; Cloned between AscI and NotI of the NRV vector (GST, RFP, Strep-tags; Curran et al., 2011) with the amino acids APG after the restriction site; fusion protein about 55 kD; also called G-P0; G-GLR3.7 P0; not shown: RFP (from the NRV vector)
Consider B2, for which the Kd came to 1770 nM.

The values above are taken from PMC6779109, “The Glutamate Receptor-Like Protein GLR3.7 Interacts With 14-3-3ω and Participates in Salt Stress Response in Arabidopsis thaliana” (Frontiers in Plant Science, 2019).
